The source of these data is patent US20100254992A1.

Assay [1] deals with Human Monocyte Chemoattractant Protein-1 (MCP-1) (human) (UniProt P13500). Briefly: cell-based or functional assay.
Assay [2] has the same target. The experiment in a line: IGEN (BioVeris), MCP-1 Kd.
For assay [3] the target is unchanged. Briefly: 125I-MCP-1 binding to CCR2 on THP-1 cells, radioligand competition. Background: Displacement assays read how much labelled ligand stays bound in the presence of the test substance.
In assay [4] the target is HuMCP-1-His6 (wild type) (human) (UniProt P13500). The experiment in a line: Biacore.
HuMCP-1-His6 (wild type) (human), sequence (P13500 24-99 limits assumed): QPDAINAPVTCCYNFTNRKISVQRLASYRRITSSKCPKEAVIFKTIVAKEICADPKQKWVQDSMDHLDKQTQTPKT
Assay [5] concerns the target HuMCP-1-His6 Mutant-6 (66D → 66K) (human) (UniProt P13500). The experiment in a line: Biacore.
Assay [6] deals with HuMCP-1-His6 Mutant-5 (46IV47 → 46KR47) (human) (UniProt P13500). The experiment in a line: Biacore, C775 captured, MCP-1-His6 in solution. (Surface plasmon resonance follows binding to a sensor surface in real time, without labels.)
HuMCP-1-His6 Mutant-5 (46IV47 → 46KR47) (human), sequence (P13500 other isoform, or with tags, fused parts or gaps mutant limits assumed): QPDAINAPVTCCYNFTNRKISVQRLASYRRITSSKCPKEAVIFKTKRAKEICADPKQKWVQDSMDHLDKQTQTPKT
The target in assay [7] is HuMCP-1-His6 Mutant-4 (29R → 29T) (human) (UniProt P13500). Briefly: Biacore, C775 captured, MCP-1-His6 in solution.
HuMCP-1-His6 Mutant-4 (29R → 29T) (human), sequence (P13500 other isoform, or with tags, fused parts or gaps mutant limits assumed): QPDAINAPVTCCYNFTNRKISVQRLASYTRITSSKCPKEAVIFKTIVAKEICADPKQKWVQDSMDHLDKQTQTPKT
Assay [8] addresses HuMCP-1-His6 (wild type) (human) (UniProt P13500). Briefly: Biacore, C775 captured, MCP-1-His6 in solution.
Assay [9] addresses HuMCP-1-His6 Mutant-2 (6NA7 → 6SI7) (human) (UniProt P13500). Briefly: Biacore, C775 captured, MCP-1-His6 in solution.
Assay [10] concerns the target HuMCP-1-His6 Mutant-8 (4AINA7 → 4GGGG7) (human) (UniProt P13500). Briefly: Biacore, C775 captured, MCP-1-His6 in solution.
Assay [11] addresses HuMCP-1-His6 Mutant-P8A (human) (UniProt P13500). Briefly: Biacore, C775 captured, MCP-1-His6 in solution.
Assay [12] concerns the target HuMCP-1-His6 Mutant-1 (33SSK35 → 33NIQ35) (human) (UniProt P13500). The experiment in a line: Biacore, C775 captured, MCP-1-His6 in solution.
Assay [13] addresses HuMCP-1-His6 Mutant-Y13A (human) (UniProt P13500). Briefly: Biacore, C775 captured, MCP-1-His6 in solution.
Assay [14] addresses HuMCP-1-His6 Mutant-7 (4AINA7 → 4SVSI7) (human) (UniProt P13500). Briefly: Biacore, C775 captured, MCP-1-His6 in solution.
The target of assay [15] is HuMCP-1-His6 Mutant-9 (4AINA7 . . . 46IV47 → 4SVSI7 . . . 46KR47) (human). The experiment in a line: Biacore, C775 captured, MCP-1-His6 in solution.
HuMCP-1-His6 Mutant-9 (4AINA7 . . . 46IV47 → 4SVSI7 . . . 46KR47) (human), sequence (chain, as listed by the source mutant limits assumed): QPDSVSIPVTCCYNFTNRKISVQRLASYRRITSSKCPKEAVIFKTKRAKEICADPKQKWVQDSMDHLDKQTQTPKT
Assay [16] deals with HuMCP-1-His6 Mutant-3 (15FT16 → 15VI16) (human) (UniProt P13500). Briefly: Biacore, C775 captured, MCP-1-His6 in solution.
HuMCP-1-His6 Mutant-3 (15FT16 → 15VI16) (human), sequence (P13500 other isoform, or with tags, fused parts or gaps mutant limits assumed): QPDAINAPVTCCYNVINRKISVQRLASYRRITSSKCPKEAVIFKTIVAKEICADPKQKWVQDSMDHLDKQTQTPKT
Assay [17] concerns the target HuMCP-1-His6 Mutant-6 (66D → 66K) (human) (UniProt P13500). The experiment in a line: Biacore, C775 captured, MCP-1-His6 in solution.

HuMCP-1-His6 Mutant-6 (66D → 66K) (human), sequence (P13500 other isoform, or with tags, fused parts or gaps mutant, form in doubt): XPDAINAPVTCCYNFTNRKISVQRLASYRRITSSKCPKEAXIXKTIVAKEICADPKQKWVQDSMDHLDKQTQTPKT
Human Monocyte Chemoattractant Protein-1 (MCP-1) (human), sequence (P13500 24-99 limits assumed): as the sequence (P13500 24-99 limits assumed) above
HuMCP-1-His6 Mutant-P8A (human), sequence (P13500 other isoform, or with tags, fused parts or gaps limits assumed, stated change not applied): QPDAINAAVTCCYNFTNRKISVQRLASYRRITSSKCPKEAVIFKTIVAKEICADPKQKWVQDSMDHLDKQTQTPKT
HuMCP-1-His6 Mutant-1 (33SSK35 → 33NIQ35) (human), sequence (P13500 other isoform, or with tags, fused parts or gaps mutant limits assumed): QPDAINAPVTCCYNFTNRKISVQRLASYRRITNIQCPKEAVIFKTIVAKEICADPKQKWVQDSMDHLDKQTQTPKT
HuMCP-1-His6 Mutant-7 (4AINA7 → 4SVSI7) (human), sequence (P13500 other isoform, or with tags, fused parts or gaps mutant limits assumed): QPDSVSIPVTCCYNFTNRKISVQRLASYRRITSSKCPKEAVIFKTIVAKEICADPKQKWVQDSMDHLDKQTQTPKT
HuMCP-1-His6 Mutant-Y13A (human), sequence (P13500 24-99 Y36A limits assumed): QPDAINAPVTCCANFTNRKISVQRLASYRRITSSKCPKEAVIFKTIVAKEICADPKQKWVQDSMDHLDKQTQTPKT
HuMCP-1-His6 Mutant-8 (4AINA7 → 4GGGG7) (human), sequence (P13500 other isoform, or with tags, fused parts or gaps mutant limits assumed): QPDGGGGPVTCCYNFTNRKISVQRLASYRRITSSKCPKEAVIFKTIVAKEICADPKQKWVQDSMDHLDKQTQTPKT
HuMCP-1-His6 Mutant-2 (6NA7 → 6SI7) (human), sequence (P13500 other isoform, or with tags, fused parts or gaps mutant limits assumed): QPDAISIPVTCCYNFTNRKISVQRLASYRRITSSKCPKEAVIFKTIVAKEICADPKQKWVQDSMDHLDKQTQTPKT

B1: C775 Fab (reference Fab) (Fab, from another filing, V domains shown)
VH: QVQLKQSGAELVRPGASVKLSCKASGYTFTDYYINWVKQRPGQGLEWIARIYPGTGNTYYNENFKGKATLTAEKSSSTAYMQLSSLTSEDSAVYFCARSGSTVVGNYYGMDYWGQGTSVTVSS
VL: SIVMTQTPKFLLVSAGDRVSITCKASQSVSNDVAWYQQKPGQSPKLLIYYASNRYTGVPDRFTGSGYGTDFTFTISTVQAEDLAVYFCQQDYSSPWTFGGGTKLEIKR
In general, Kd refers to the constant that tells how readily two partners part at equilibrium. A low value points to tighter binding. By IC50 is commonly meant the point on the concentration scale where inhibition reaches its midpoint. Lower therefore signals inhibition by little substance. The molecule B1 came in with an Inhibition of Ca2+ Mobilization IC50 in assay [1] of 71.5 nM. In assay [2], this molecule displayed a Kd of 65 nM. Further, the IC50 in assay [3] was found to be 35.6 nM.

B2: C775 (murine anti-human MCP-1 antibody, IgG) (antibody, from another filing, V domains shown)
VH: B1 VH
VL: B1 VL
By koff is commonly meant the first-order rate constant of dissociation. High values mean a short-lived complex, low ones a long-lived complex. As a reminder, the kon is the rate constant with which the complex forms. Low values mean slow association, high ones fast association. With B2, the Kd in assay [4] is 3 nM; in [6], 1.7 nM; in assay [7], 3 nM; in [8], 3.1 nM; in [9], 6.3 nM; in assay [10], 5.5 nM. In addition, the Kd in assay [11] was 2.6 nM; in assay [12], 2 nM; in [13] it was 1.7 nM; in [14], 4.5 nM; in assay [15], 1.7 nM; in assay [16] it was 4.5 nM. The molecule further gave a Kd in assay [17] of 27.7 nM. This molecule registered a fold decrease in fold change in binding affinity against wild type MCP-1 in assay [5] of 9 fold. The koff in assay [6] turned out to be 0.00278 s⁻¹; in [7], 0.0027 s⁻¹; in assay [8] it was 0.00503 s⁻¹; in assay [9] it was 0.00548 s⁻¹; in assay [10], 0.00947 s⁻¹; in [11], 0.00448 s⁻¹. In addition, the koff was 0.0034 s⁻¹ in assay [12]; 0.003 s⁻¹ in assay [13]; 0.00327 s⁻¹ in assay [14]; 0.00531 s⁻¹ in [15]; 0.0074 s⁻¹ in assay [16]; 0.00541 s⁻¹ in [17]. The kon in assay [6] was 1.64e+06 M⁻¹ s⁻¹; in assay [7] it was 880000 M⁻¹ s⁻¹; in assay [8], 1.64e+06 M⁻¹ s⁻¹; in assay [9] it was 868000 M⁻¹ s⁻¹; in assay [10], 1.73e+06 M⁻¹ s⁻¹; in assay [11], 1.75e+06 M⁻¹ s⁻¹. Also, the kon came out at 1.6e+06 M⁻¹ s⁻¹ in assay [12]; 1.79e+06 M⁻¹ s⁻¹ in assay [13]; 720000 M⁻¹ s⁻¹ in assay [14]; 3.16e+06 M⁻¹ s⁻¹ in [15]; 1.66e+06 M⁻¹ s⁻¹ in assay [16]; 195000 M⁻¹ s⁻¹ in assay [17]. This molecule returned an Inhibition of Ca2+ Mobilization IC50 in assay [1] of 62.3 nM. Further, the IC50 in assay [3] turned out to be 25.6 nM.
